Experimental data: doi:10.1101/2025.09.09.675230

Key:
[1] = biological target: Measles virus hemagglutinin (H) ectodomain, untagged (HECT), residues 149-617 (Measles virus strain IC323 (Ichinose-B95a)); test: cryo-EM structure
[2] = biological target: Measles virus hemagglutinin (H) ectodomain with twin StrepII tag (HECT-TS), residues 149-617 (Measles virus strain IC323 (Ichinose-B95a)); test: cryo-EM structure

Measles virus hemagglutinin (H) ectodomain, untagged (HECT), residues 149-617 (domain or fragment)
stoichiometry N [1]: 2

Measles virus hemagglutinin (H) ectodomain with twin StrepII tag (HECT-TS), residues 149-617 (domain or fragment)
stoichiometry N [2]: 2
